Test results taken from paper PMC4746669, “Attenuation of ligand-induced activation of angiotensin II type 1 receptor signaling by the type 2 receptor via protein kinase C” (Scientific Reports, 2016).

B1: FLAG-AT2R-CFP (angiotensin II type 2 receptor) [human] / HA-AT1R-YFP (angiotensin II type 1 receptor) [human] (parent)
chain 1: MKGNSTLATTSKNITSGLHFGLVNISGNNESTLNCSQKPSDKHLDAIPILYYIIFVIGFLVNIVVVTLFCCQKGPKKVSSIYIFNLAVADLLLLATLPLWATYYSYRYDWLFGPVMCKVFGSFLTLNMFASIFFITCMSVDRYQSVIYPFLSQRRNPWQASYIVPLVWCMACLSSLPTFYFRDVRTIEYLGVNACIMAFPPEKYAQWSAGIALMKNILGFIIPLIFIATCYFGIRKHLLKTNSYGKNRITRDQVLKMAAAVVLAFIICWLPFHVLTFLDALAWMGVINSCEVIAVIDLALPFAILLGFTNSCVNPFLYCFVGNRFQQKLRSVFRVPITWLQGKRESMSCRKSSSLREMETFVS
chain 2: MILNSSTEDGIKRIQDDCPKAGRHNYIFVMIPTLYSIIFVVGIFGNSLVVIVIYFYMKLKTVASVFLLNLALADLCFLLTLPLWAVYTAMEYRWPFGNYLCKIASASVSFNLYASVFLLTCLSIDRYLAIVHPMKSRLRRTMLVAKVTCIIIWLLAGLASLPAIIHRNVFFIENTNITVCAFHYESQNSTLPIGLGLTKNILGFLFPFLIILTSYTLIWKALKKAYEIQKNKPRNDDIFKIIMAIVLFFFFSWIPHQIFTFLDVLIQLGIIRDCRIADIVDTAMPITICIAYFNNCLNPLFYGFLGKKFKRYFLQLLKYIPPKAKSHSNLSTKMSTLSYRPSDNVSSSTKKPAPCFEVE

Variants of: B1
Experiment: FRET fluorescence microscopy in live HeLa cells (corrected FRET, FRETC)
Conditions: with HA-AT1R-YFP (angiotensin II type 1 receptor) [human]; value read at the end of the time course (about 50 min after AII stimulation at time 0); HeLa cells 24 h after transfection; n = 4; parent: 1.3; read off a …

Row | Variant | response
1 | chain 1 MKGNSTLATTSKNITSGLHFGLVNISGNNESTLNCSQKPSDKHLDAIPILYYIIFVIGFLVNIVVVTLFCCQKGPKKVSSIYIFNLAVADLLLLATLPLWATYYSYRYDWLFGPVMCKVFGSFLTLNMFASIFFITCMSVDRYQSVIYPFLSQRRNPWQASYIVPLVWCMACLSSLPTFYFRDVRTIEYLGVNACIMAFPPEKYAQWSAGIALMKNILGFIIPLIFIATCYFGIRKHLLKTNSYGKNRITRDQVLKMAAAVVLAFIICWLPFHVLTFLDALAWMGVINSCEVIAVIDLALPFAILLGFTNSCVNPFLYCFVGNRFQQKLRSVFRVPITWLQGKRESMSCRKAAALREMETFVS [chain 1 S352A S353A S354A] | 0.97 -fold
